According to patent publication US20230391832A1, “CO[…]-BINDING POLYPEPTIDES AND METHODS OF USING THE SAME” (Isolere Bio, Inc., priority 2022, published 2023):

Experiments:
[1] = tested on: AAV2 capsids; assay: ELISA cross-reactivity, AAV2 (FIG. 3A); format: binding
Source text: (§1) The control sequence (i.e. the human polycystic kidney domain 2, which is known to bind to AAV9 capsids) is labeled “C” in each graph.
(§2) Seven of the variants of Table C were screened for cross-reactivity to AAV2, AAV5, and AAV8.

[2] = tested on: AAV5 capsids; assay: ELISA cross-reactivity, AAV5 (FIG. 3B); format: binding
Source text: as §1, §2

[3] = tested on: AAV8 capsids; assay: ELISA cross-reactivity, AAV8 (FIG. 3C); format: binding
Source text: as §1, §2

[4] = tested on: AAV9 full capsids; assay: pH dependence of binding by ELISA (acidic vs neutral elution); settings: purified polypeptide 1 μM; citric acid pH 3, 4 or 5 vs TBS pH 7.2; FIG. 4
Procedure: The pH dependence of binding of the polypeptides of Table C was evaluated by ELISA. Initially, the bacterial lysates of cultures expressing the polypeptides of Table C were incubated in a citric acid solution (pH 4.0) containing AAV9 capsids for 30 minutes. Subsequently, the solution was washed in Tris-Buffered Saline (TBS), which contained 0.05% TWEEN® 20, at neutral pH.
The five polypeptides were expressed and purified via a C-terminal 6X-His tag. The purified polypeptides (1 μM) were incubated with an ELISA plate that was coated with AAV9 full capsids. The polypeptides were eluted from the ELISA plate with a citric acid solution at pH 3, 4, or 5 (acidic elution) or in the TBS solution described above at pH 7.2 (neutral elution). The ELISA signal from the protein that was still bound to the AAV9 capsid was measured. The post elution % ligand remaining bound to AAV9 was calculated by dividing the signal after pH 3, 4, or 5 incubation by the signal after pH 7.2 incubation, and multiplying by 100.

[5] = tested on: AAV9 capsids; settings: cited from earlier work
[6] = tested on: AAV full capsids vs AAV empty capsids; settings: cited from earlier work

B1: PKD2 control protein: N-terminal His-tagged polycystic kidney domain 2 (PKD2 domain) from the AAV receptor, known to bind AAV9 capsids (protein)
chain: IAIVSPQFQEISLPTTSTVIDGSQSTDDDKIVQYHWEELKGPLREEKISEDTAILKLSKLVPGNYTFSLTVVDSDGATNSTTANLTVNKA
modifications: left off: small tags and cut ends
In the case of B1, the “binding / cross-reactivity to AAV2” value [1] is reported as “cross reacted strongly”, the “binding / cross-reactivity to AAV5” value [2] is reported as “bound poorly or very weakly” and the “binding / cross-reactivity to AAV8” value [3] is reported as “bound poorly or very weakly”. For the same molecule, the “AAV9 binding signal after acidic elution compared to neutral elution” value [4] was “reduced AAV9 binding signal”, the “affinity to AAV9 capsids (known)” value [5] was “known affinity to AAV9 capsids” and the “discrimination between full and empty capsids (known)” value [6] was “no discrimination between full and empty capsids”.
